B1: Copper-transporting ATPase 2 (Homo sapiens), P35670 (parent)
chain: MPEQERQITAREGASRKILSKLSLPTRAWEPAMKKSFAFDNVGYEGGLDGLGPSSQVATSTVRILGMTCQSCVKSIEDRISNLKGIISMKVSLEQGSATVKYVPSVVCLQQVCHQIGDMGFEASIAEGKAASWPSRSLPAQEAVVKLRVEGMTCQSCVSSIEGKVRKLQGVVRVKVSLSNQEAVITYQPYLIQPEDLRDHVNDMGFEAAIKSKVAPLSLGPIDIERLQSTNPKRPLSSANQNFNNSETLGHQGSHVVTLQLRIDGMHCKSCVLNIEENIGQLLGVQSIQVSLENKTAQVKYDPSCTSPVALQRAIEALPPGNFKVSLPDGAEGSGTDHRSSSSHSPGSPPRNQVQGTCSTTLIAIAGMTCASCVHSIEGMISQLEGVQQISVSLAEGTATVLYNPSVISPEELRAAIEDMGFEASVVSESCSTNPLGNHSAGNSMVQTTDGTPTSVQEVAPHTGRLPANHAPDILAKSPQSTRAVAPQKCFLQIKGMTCASCVSNIERNLQKEAGVLSVLVALMAGKAEIKYDPEVIQPLEIAQFIQDLGFEAAVMEDYAGSDGNIELTITGMTCASCVHNIESKLTRTNGITYASVALATSKALVKFDPEIIGPRDIIKIIEEIGFHASLAQRNPNAHHLDHKMEIKQWKKSFLCSLVFGIPVMALMIYMLIPSNEPHQSMVLDHNIIPGLSILNLIFFILCTFVQLLGGWYFYVQAYKSLRHRSANMDVLIVLATSIAYVYSLVILVVAVAEKAERSPVTFFDTPPMLFVFIALGRWLEHLAKSKTSEALAKLMSLQATEATVVTLGEDNLIIREEQVPMELVQRGDIVKVVPGGKFPVDGKVLEGNTMADESLITGEAMPVTKKPGSTVIAGSINAHGSVLIKATHVGNDTTLAQIVKLVEEAQMSKAPIQQLADRFSGYFVPFIIIMSTLTLVVWIVIGFIDFGVVQRYFPNPNKHISQTEVIIRFAFQTSITVLCIACPCSLGLATPTAVMVGTGVAAQNGILIKGGKPLEMAHKIKTVMFDKTGTITHGVPRVMRVLLLGDVATLPLRKVLAVVGTAEASSEHPLGVAVTKYCKEELGTETLGYCTDFQAVPGCGIGCKVSNVEGILAHSERPLSAPASHLNEAGSLPAEKDAVPQTFSVLIGNREWLRRNGLTISSDVSDAMTDHEMKGQTAILVAIDGVLCGMIAIADAVKQEAALAVHTLQSMGVDVVLITGDNRKTARAIATQVGINKVFAEVLPSHKVAKVQELQNKGKKVAMVGDGVNDSPALAQADMGVAIGTGTDVAIEAADVVLIRNDLLDVVASIHLSKRTVRRIRINLVLALIYNLVGIPIAAGVFMPIGIVLQPWMGSAAMAASSVSVVLSSLQLKCYKKPDLERYEAQAHGHMKPLTASQVSVHIGMDDRWRDSPRATPWDQVSYVSQVSLSSLTSDKPSRHSAAADDDGDKWSLLLNGRDEEQYI

Variants of: B1
Conditions: with comd1_human COMMD1, Q8N668
Chain of comd1_human COMMD1, Q8N668 (Q8N668 whole entry): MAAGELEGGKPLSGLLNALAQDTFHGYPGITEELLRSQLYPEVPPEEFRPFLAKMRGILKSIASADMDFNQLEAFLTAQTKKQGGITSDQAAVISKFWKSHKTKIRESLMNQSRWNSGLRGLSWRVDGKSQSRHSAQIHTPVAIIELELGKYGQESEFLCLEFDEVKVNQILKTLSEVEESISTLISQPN

Variant | effect of a mutation on the interaction
E541K | increasing interaction strength
N41S | increasing interaction strength
G626A | decreasing interaction strength
A486S | increasing interaction strength
R616Q | increasing interaction strength
R616W | increasing interaction strength
G284V | increasing interaction strength
G170V | increasing interaction strength
Y532H | increasing interaction strength
G85V | increasing interaction strength
D642H | decreasing interaction strength
G591D | increasing interaction strength
L641S | with no effect
G515V | increasing interaction strength
M645R | decreasing interaction strength
G386V | increasing interaction strength
L492S | with no effect
A604P | decreasing interaction strength
